Reference: patent US20120100142A1

Assays:
Assay in all cases: cell-based or functional assay
[1] = target: HA of A/Mexico/4108/09 (2009 A (H1N1)) virus (influenza A/Mexico/4108/2009 (H1N1) virus)
[2] = target: HA of influenza A/Weiss/43 (H1N1) virus (influenza A/Weiss/43 (H1N1) virus)
[3] = target: HA of influenza A/USSR/92/77 (H1N1) virus (influenza A/USSR/92/77 (H1N1) virus)
[4] = target: HA of influenza A/Swine/Iowa/15/30 (H1N1) virus (influenza A/Swine/Iowa/15/30 (H1N1) virus)

mAb 1F1 (antibody) showed an HAI, specific activity of indicated mAb [1] of over 5 µg/mL, a Neut Ab, specific activity of indicated mAb [1] of over 5 µg/mL and a neutralizing activity, specific activity [2] of 1.8 µg/mL. The neutralizing activity, specific activity [3] was 0.88 µg/mL and the Specific HAI activity [4] was 0.04 µg/mL.
